Experimental findings from patent US20140242080A1 (Hoffmann-La Roche, published 2014) are described below.

The target in test [1] is T1, hu-MCSP(D3 domain)-avi-his (human, UniProt Q6UVK1 1582-2224).
T1 construct: Recombinant D3 domain with avi and his tags; also called human MCSP(D3 domain)-avi-his; Human MCSP D3
T1 sequence: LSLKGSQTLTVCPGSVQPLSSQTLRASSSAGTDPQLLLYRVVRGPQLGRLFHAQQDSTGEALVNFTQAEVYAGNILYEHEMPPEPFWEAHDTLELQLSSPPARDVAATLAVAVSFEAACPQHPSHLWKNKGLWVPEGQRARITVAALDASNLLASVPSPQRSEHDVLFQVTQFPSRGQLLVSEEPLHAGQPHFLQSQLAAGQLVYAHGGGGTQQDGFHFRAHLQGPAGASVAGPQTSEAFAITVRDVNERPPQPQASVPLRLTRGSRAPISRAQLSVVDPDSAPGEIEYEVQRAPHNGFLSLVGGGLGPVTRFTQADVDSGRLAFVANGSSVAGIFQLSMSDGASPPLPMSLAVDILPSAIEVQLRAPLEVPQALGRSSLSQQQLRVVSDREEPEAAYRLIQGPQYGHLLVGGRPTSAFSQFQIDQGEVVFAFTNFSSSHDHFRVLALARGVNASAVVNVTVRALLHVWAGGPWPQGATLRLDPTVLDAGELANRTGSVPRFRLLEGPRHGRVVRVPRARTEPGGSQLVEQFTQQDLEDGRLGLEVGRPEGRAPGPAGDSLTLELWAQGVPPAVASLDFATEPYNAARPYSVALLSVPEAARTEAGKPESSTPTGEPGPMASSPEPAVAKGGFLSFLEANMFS
As to the kind of experiment: ratio of ProteOn IgG KD, parent M4-3/ML2 against variant.

The target in test [2] is T2, cynomolgus MCSP D3 (cynomolgus, UniProt Q6UVK1 1582-2224 (human entry), limits assumed).
T2 construct: also called Cyno MCSP; cynomolgus homologue
T2 chain: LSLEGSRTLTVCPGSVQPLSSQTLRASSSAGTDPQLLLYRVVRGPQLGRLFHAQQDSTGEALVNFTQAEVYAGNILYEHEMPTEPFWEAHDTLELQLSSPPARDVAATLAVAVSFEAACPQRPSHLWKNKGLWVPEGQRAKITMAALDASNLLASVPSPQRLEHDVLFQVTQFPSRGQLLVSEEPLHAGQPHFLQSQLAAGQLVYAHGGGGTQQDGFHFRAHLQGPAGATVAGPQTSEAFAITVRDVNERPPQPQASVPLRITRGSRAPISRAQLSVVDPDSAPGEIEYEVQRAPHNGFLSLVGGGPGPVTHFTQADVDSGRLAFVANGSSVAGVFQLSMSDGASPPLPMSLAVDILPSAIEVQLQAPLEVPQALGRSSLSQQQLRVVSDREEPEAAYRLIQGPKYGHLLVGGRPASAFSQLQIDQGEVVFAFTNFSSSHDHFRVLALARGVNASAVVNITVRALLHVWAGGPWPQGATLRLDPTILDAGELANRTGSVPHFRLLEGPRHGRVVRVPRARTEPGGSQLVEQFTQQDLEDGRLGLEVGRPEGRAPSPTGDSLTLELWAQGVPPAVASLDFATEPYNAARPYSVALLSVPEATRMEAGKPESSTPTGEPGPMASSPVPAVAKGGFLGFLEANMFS
The description is as above.

Test [3] has as its target T1, hu-MCSP(D3 domain)-avi-his. As to the kind of experiment: SPR ProteOn XPR36, 25 C; IgG captured via anti-human F(ab')2, MCSP D3 as analyte.
Test [4] deals with T2, cynomolgus MCSP D3. Described as above.
Test [5] has as its target T1, hu-MCSP(D3 domain)-avi-his. As to the kind of experiment: SPR Biacore T200, 25 C; affinity: IgG captured via anti-human Fc, MCSP D3 as analyte. The procedure: (§1) For analyzing the avidity of the interaction of different anti-MCSP IgGs to human and cynomolgus MCSP D3 direct coupling of around 9,500 resonance units (RU) of the anti-Penta His antibody (Qiagen) was performed on a CM5 chip at pH 5.0 using the standard amine coupling kit (Biacore, Freiburg/Germany). Antigens were captured for 60 s at 30 nM with 10 μl/min respectively. IgGs were passed at a concentration of 0.0064-100 nM with a flowrate of 30 μl/min through the flow cells over 280 s. The dissociation was monitored for 180 s. Bulk refractive index differences were corrected for by subtracting the response obtained on reference flow cell. […] For affinity measurements IgGs were captured on a CM5 sensorchip surface with immobilized anti human Fc. Capture IgG was coupled to the sensorchip surface by direct immobilization of around 9,500 resonance units (RU) at pH 5.0 using the standard amine coupling kit (Biacore, Freiburg/Germany). IgGs are captured for 25 s at 10 nM with 30 μl/min. Human and cynomolgus MCSP D3 were passed at a concentration of 2-500 nM with a flowrate of 30 μl/min through the flow cells over 120 s. The dissociation was monitored for 60 s. […] Bulk refractive index differences were corrected for by subtracting the response obtained on reference flow cell.
A general note: SPR reads the build-up and loss of mass on a sensor chip optically.

Test [6] concerns the target T2, cynomolgus MCSP D3. The test is described as above. The procedure: as §1
The target of test [7] is T1, hu-MCSP(D3 domain)-avi-his. As to the kind of experiment: SPR Biacore T200, 25 C; avidity: MCSP D3 captured via anti-Penta His, IgG as analyte. The procedure:
as §1

In test [8] the target is T2, cynomolgus MCSP D3. Described as above. On the procedure:
as §1

Test [9] addresses T3, human MCSP expressed on tumor cells (Colo-38, WM266-4, A375, MV-3, HCT-116) (human, UniProt Q6UVK1 30-2322). As to the kind of experiment: cell-based or functional assay.
Test [10] addresses T4, human CD3 expressed on Jurkat cells (human, UniProt P07766 23-207).
T4 construct: CD3 complex on Jurkat T cells; also called CD3 on Jurkat cells; huCD3
Kind of test: flow cytometry on Jurkat cells. The procedure: (§2) Binding of the different bispecific constructs to CD3 on Jurkat cells (ATCC #TIB-152), and the respective tumor antigen on target cells, was determined by FACS. Briefly, cells were harvested, counted and checked for viability. 0.15-0.2 million cells per well (in PBS containing 0.1% BSA; 90 μl) were plated in a round-bottom 96-well plate and incubated with the indicated concentration of the bispecific constructs and corresponding IgG controls (10 μl) for 30 min at 4° C. […] After the incubation, cells were centrifuged (5 min, 350×g), washed with 150 μl PBS containing 0.1% BSA, resuspended and incubated for further 30 min at 4° C. with 12 μl/well of a FITC- or PE-conjugated secondary antibody. Bound constructs were detected using a FACSCantoII (Software FACS Diva). The “(scFv)₂” molecule was detected using a FITC-conjugated anti-His antibody (Lucerna, #RHIS-45F-Z). For all other molecules, a FITC- or PE-conjugated AffiniPure F(ab′)2 Fragment goat anti-human IgG Fcγ Fragment Specific (Jackson Immuno Research Lab #109-096-098/working solution 1:20, or #109-116-170/working solution 1:80, respectively) was used. Cells were washed by addition of 120 μl/well PBS containing 0.1% BSA and centrifugation at 350×g for 5 min. A second washing step was performed with 150 μl/well PBS containing 0.1% BSA. […] EC50 values were calculated using the GraphPad Prism software.
As a control, the equivalent maximum concentration of the corresponding IgGs and the background staining due to the labeled 2ndary antibody (goat anti-human FITC-conjugated AffiniPure F(ab′)2 Fragment, FcγFragment-specific, Jackson Immuno Research Lab #109-096-098) were assessed as well.

Test [11] concerns the target T3, human MCSP expressed on tumor cells …. As to the kind of experiment: flow cytometry on WM266-4 cells. On the procedure:
as §2
In general terms: Flow cytometry measures light scatter and fluorescence of single cells or particles in a stream.

The term EC50 denotes the concentration needed to bring the measured effect to its halfway point. The low end stands for greater potency, the high end for weaker potency.

T3 sequence (Q6UVK1 30-2322): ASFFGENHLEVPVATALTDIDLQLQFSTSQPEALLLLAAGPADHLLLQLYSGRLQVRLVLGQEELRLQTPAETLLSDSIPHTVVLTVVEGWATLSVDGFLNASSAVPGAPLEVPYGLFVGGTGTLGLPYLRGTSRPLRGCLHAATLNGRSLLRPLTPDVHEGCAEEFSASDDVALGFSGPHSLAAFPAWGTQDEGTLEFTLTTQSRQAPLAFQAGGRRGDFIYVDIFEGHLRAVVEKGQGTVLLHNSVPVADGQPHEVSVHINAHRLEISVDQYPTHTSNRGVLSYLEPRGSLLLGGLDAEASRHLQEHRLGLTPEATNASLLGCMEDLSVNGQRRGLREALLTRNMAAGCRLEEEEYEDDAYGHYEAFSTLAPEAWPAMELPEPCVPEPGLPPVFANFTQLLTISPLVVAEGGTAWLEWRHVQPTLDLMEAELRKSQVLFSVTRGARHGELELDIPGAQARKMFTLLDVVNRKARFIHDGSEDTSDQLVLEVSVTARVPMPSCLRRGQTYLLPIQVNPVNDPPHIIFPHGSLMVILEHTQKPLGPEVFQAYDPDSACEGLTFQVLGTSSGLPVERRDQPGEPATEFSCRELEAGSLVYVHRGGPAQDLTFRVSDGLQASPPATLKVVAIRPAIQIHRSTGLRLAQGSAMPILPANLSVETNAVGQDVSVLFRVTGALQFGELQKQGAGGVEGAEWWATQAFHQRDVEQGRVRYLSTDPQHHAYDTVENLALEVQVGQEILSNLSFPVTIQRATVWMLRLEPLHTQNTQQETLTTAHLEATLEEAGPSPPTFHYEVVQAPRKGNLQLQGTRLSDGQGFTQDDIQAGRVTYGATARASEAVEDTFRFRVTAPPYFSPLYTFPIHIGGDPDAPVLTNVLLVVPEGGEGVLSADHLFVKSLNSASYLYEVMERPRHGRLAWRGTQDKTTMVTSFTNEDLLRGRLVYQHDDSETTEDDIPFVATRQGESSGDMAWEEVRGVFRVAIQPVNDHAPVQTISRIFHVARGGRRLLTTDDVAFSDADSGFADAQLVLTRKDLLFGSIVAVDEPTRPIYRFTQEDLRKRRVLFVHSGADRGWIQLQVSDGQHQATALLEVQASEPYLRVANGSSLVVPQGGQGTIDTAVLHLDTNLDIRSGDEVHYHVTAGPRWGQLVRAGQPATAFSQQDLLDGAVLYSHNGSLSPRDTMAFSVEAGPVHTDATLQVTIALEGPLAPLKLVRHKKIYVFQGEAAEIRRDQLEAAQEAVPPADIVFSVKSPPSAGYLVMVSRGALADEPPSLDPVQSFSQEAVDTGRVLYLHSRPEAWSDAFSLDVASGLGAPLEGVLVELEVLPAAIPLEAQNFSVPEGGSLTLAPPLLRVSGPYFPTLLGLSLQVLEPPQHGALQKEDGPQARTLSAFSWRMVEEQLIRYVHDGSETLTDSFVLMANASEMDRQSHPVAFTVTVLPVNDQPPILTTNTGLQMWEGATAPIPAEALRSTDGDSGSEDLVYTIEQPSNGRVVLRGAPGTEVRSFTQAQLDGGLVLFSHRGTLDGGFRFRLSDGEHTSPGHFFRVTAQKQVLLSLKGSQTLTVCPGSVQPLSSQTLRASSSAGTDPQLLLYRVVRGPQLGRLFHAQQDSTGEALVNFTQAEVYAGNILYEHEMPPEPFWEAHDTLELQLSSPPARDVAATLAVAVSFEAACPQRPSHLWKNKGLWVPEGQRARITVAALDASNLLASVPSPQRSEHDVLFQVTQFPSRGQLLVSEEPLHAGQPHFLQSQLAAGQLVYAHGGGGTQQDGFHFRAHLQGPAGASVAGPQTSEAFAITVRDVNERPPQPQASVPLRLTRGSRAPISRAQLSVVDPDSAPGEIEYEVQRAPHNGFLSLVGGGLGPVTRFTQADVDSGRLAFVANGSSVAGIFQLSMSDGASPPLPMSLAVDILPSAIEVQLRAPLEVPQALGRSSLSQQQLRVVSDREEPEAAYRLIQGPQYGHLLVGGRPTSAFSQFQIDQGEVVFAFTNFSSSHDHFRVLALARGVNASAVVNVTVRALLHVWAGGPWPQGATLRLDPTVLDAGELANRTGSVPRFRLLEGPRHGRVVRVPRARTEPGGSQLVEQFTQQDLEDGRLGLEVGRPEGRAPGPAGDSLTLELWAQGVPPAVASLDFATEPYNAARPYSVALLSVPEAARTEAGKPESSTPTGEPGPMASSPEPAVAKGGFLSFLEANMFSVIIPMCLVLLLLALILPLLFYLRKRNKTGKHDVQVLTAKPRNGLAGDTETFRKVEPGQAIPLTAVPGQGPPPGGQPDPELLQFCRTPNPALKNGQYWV
T4 sequence (P07766 23-207 limits assumed): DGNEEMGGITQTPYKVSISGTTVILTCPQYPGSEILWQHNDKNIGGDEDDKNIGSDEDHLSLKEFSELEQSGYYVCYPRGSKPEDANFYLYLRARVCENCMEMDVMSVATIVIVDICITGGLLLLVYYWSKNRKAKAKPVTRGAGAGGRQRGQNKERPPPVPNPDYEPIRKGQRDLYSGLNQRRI

B1: M4-3(C1)/ML2(G3) IgG (antibody, V domains shown)
VH: QVQLQESGPGLVKPSQTLSLTCTVSGGSITSGYYWNWIRQHPGKGLEWIGYITFDGSNNYNPSLKSRVTISRDTSKNQFSLKLSSVTAADTAVYYCADFDYWGQGTLVTVSS
VL: DIQMTQSPSSLSASVGDRVTITCRASQGIRNYLNWYQQKPGKAPKLLIYYTSSLHSGVPSRFSGSGSGTDYTLTISSLQPEDFATYYCQQYSALPWTFGQGTKVEIKR
notes: Human IgG1
In the case of B1, the “Fold increase over parent” value in [1] came to 28.6 fold; with cynomolgus MCSP D3 [2], 10 fold. Moreover, the Kd was determined as 0.07 nM in [3]; 0.2 nM with cynomolgus MCSP D3 [4]; 1.8 nM in test [5]; 1.4 nM with cynomolgus MCSP D3 [6]; 0.0045 nM in test [7]; 0.0038 nM in the test with cynomolgus MCSP D3 [8].

B2: 2 + 1 IgG Crossfab, inverted; CL/CH1 exchange (LC007/V9) (anti-MCSP/anti-huCD3) (bispecific antibody)
chain 1: DIVLTQSPSSLSASLGDRVTISCSASQGIRNYLNWYQQRPDGTVKLLIYYTSSLHSGVPSRFSGSGSGTDYSLTISNLEPEDIATYYCQQYSKLPWTFGGGTKLEIKRTVAAPSVFIFPPSDEQLKSGTASVVCLLNNFYPREAKVQWKVDNALQSGNSQESVTEQDSKDSTYSLSSTLTLSKADYEKHKVYACEVTHQGLSSPVTKSFNRGEC
chain 2: EVQLQESGPGLVKPSQSLSLTCSVTGYSITSGYYWNWIRQFPGNKLEWMGYITYDGSNNYNPSLKNRISITRDTSKNQFFLKLNSVTTEDTATYYCADFDYWGQGTTLTVSSASTKGPSVFPLAPSSKSTSGGTAALGCLVKDYFPEPVTVSWNSGALTSGVHTFPAVLQSSGLYSLSSVVTVPSSSLGTQTYICNVNHKPSNTKVDKKVEPKSCDKTHTCPPCPAPEAAGGPSVFLFPPKPKDTLMISRTPEVTCVVVDVSHEDPEVKFNWYVDGVEVHNAKTKPREEQYNSTYRVVSVLTVLHQDWLNGKEYKCKVSNKALGAPIEKTISKAKGQPREPQVCTLPPSRDELTKNQVSLSCAVKGFYPSDIAVEWESNGQPENNYKTTPPVLDSDGSFFLVSKLTVDKSRWQQGNVFSCSVMHEALHNHYTQKSLSLSPGK
chain 3: DIQMTQSPSSLSASVGDRVTITCRASQDIRNYLNWYQQKPGKAPKLLIYYTSRLESGVPSRFSGSGSGTDYTLTISSLQPEDFATYYCQQGNTLPWTFGQGTKVEIKSSASTKGPSVFPLAPSSKSTSGGTAALGCLVKDYFPEPVTVSWNSGALTSGVHTFPAVLQSSGLYSLSSVVTVPSSSLGTQTYICNVNHKPSNTKVDKKVEPKSC
chain 4: not shown
notes: also called 2+1 IgG Crossfab, inverted (V9)
Consider B2, for which, in test [9], the “EC50 [pM] of T cell-mediated killing (LDH release), MV-3 cells, human PBMCs E:T 10:1, about 24 h” value stood at 4.1 pM and the “EC50 [pM] of T cell-mediated killing (LDH release), WM266-4 cells, human PBMCs E:T 10:1, about 24 h” value amounted to 3.7 pM. Also, the midpoint of the response in test [10], the EC50, lay at 6.1 nM. For the same molecule, it took 0.57 nM to reach a half-maximal effect in [11] (EC50).

B3: 2 + 1 IgG Crossfab; CL/CH1 exchange (LC007/anti-CD3) (anti-MCSP/anti-huCD3) (bispecific antibody)
chain 1: DIVLTQSPSSLSASLGDRVTISCSASQGIRNYLNWYQQRPDGTVKLLIYYTSSLHSGVPSRFSGSGSGTDYSLTISNLEPEDIATYYCQQYSKLPWTFGGGTKLEIKRTVAAPSVFIFPPSDEQLKSGTASVVCLLNNFYPREAKVQWKVDNALQSGNSQESVTEQDSKDSTYSLSSTLTLSKADYEKHKVYACEVTHQGLSSPVTKSFNRGEC
chain 2: EVQLQESGPGLVKPSQSLSLTCSVTGYSITSGYYWNWIRQFPGNKLEWMGYITYDGSNNYNPSLKNRISITRDTSKNQFFLKLNSVTTEDTATYYCADFDYWGQGTTLTVSSASTKGPSVFPLAPSSKSTSGGTAALGCLVKDYFPEPVTVSWNSGALTSGVHTFPAVLQSSGLYSLSSVVTVPSSSLGTQTYICNVNHKPSNTKVDKKVEPKSCDKTHTCPPCPAPEAAGGPSVFLFPPKPKDTLMISRTPEVTCVVVDVSHEDPEVKFNWYVDGVEVHNAKTKPREEQYNSTYRVVSVLTVLHQDWLNGKEYKCKVSNKALGAPIEKTISKAKGQPREPQVCTLPPSRDELTKNQVSLSCAVKGFYPSDIAVEWESNGQPENNYKTTPPVLDSDGSFFLVSKLTVDKSRWQQGNVFSCSVMHEALHNHYTQKSLSLSPGK
chain 3: QAVVTQESALTTSPGETVTLTCRSSTGAVTTSNYANWVQEKPDHLFTGLIGGTNKRAPGVPARFSGSLIGDKAALTITGAQTEDEAIYFCALWYSNLWVFGGGTKLTVLSSASTKGPSVFPLAPSSKSTSGGTAALGCLVKDYFPEPVTVSWNSGALTSGVHTFPAVLQSSGLYSLSSVVTVPSSSLGTQTYICNVNHKPSNTKVDKKVEPKSC
chain 4: not shown
notes: also called 2+1 IgG Crossfab (anti-CD3)
For B3, in [9], the “EC50 [pM] of T cell-mediated killing (LDH release), MV-3 cells, human PBMCs E:T 10:1, about 24 h” value was 11 pM and the “EC50 [pM] of T cell-mediated killing (LDH release), WM266-4 cells, human PBMCs E:T 10:1, about 24 h” value turned out to be 11.3 pM. For the same molecule, in test [10], the EC50 was found to be 10.3 nM. In test [11], this molecule returned an EC50 of 3.1 nM.
